Source: patent US20110052582A1 (Hoffmann-La Roche, published 2011)
Substitutions are numbered along the chain they refer to.

T1: Soluble CDCP1 extracellular domain (CDCP1-ECD) (SEQ ID NO:30) fused to Streptavidin Binding Protein (SBP) (human, UniProt Q9H5V8 30-663)
T1 construct: also called SBP-CDCP1-ECD
T1 sequence: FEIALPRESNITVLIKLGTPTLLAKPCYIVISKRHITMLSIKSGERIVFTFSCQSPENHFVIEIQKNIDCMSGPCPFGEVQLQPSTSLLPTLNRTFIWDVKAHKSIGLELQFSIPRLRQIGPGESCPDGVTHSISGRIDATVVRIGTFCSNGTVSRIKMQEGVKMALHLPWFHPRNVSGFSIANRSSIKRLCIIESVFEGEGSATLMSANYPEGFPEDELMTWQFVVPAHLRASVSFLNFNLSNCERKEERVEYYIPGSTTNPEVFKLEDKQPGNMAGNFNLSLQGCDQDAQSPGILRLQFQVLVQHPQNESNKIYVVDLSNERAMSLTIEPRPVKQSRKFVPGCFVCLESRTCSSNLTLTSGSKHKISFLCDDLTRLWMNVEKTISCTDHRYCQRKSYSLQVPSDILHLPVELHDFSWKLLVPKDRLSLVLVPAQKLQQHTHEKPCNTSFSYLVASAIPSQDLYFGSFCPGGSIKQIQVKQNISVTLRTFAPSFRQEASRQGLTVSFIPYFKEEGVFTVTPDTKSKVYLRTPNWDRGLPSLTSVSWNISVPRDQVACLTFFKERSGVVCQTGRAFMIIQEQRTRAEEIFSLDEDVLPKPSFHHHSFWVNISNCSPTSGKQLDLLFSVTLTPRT

B1: hHC4-a / hLC4-e (antibody, V domains shown)
VH: EVQLVESGGGLVKPGGSLRLSCAASGFTFNSYGMSWVRQAPGKGLEWVSTISSGGSYTYYPDSVKGRFTISRDNAKNSLYLQMNSLRAEDTAVYYCARHPDYDGVWFAYWGQGTLVTVSS
VL: DIQMTQSPSSLSASVGDRVTITCSVSSSVFYVHWYQQKPGKAPKLLIYDTSKLASGVPSRFSGSGSGTDFTFTISSLQPEDIATYYCQQWNSNPPTFGGGTKVEIK
B2: hHC4-a / hLC4-K (antibody, V domains shown)
VH: B1 VH
VL: EIVLTQSPATLSLSPGERATLSCRASSSVFYLHWYQQKPGQAPRLWIYDTSKLASGIPARFSGSGSGTDFTLTISSLEPEDFAVYYCQQWNSNPPTFGGGTKVEIK
B3: hHC4-c / chLC4 (antibody, V domains shown)
VH: B1 VH with K13Q, S49A
VL: QIVLTQSPAIMSASPGEKVTMTCSVSSSVFYVHWYQQKSGTSPKRWIYDTSKLASGVPARFSGSGSGTSYSLTISSMEAEDAATYYCQQWNSNPPTFGGGTKLEIK
B4: hHC4-d / hLC4-e (antibody, V domains shown)
VH: B1 VH with V5L, K13Q, A75S, S78T, R98K
VL: B1 VL
B5: hHC4-H / chLC4 (antibody, V domains shown)
VH: B1 VH with K13Q, S49A, T58K, P61V
VL: B3 VL
B6: hHC4-07 / hLC4-e (antibody, V domains shown)
VH: B1 VH with V5L, K13Q, G33A, A75S, S78T, R98K
VL: B1 VL
B7: hHC4-K / hLC4-e (antibody, V domains shown)
VH: B1 VH with T50S, T58I, P61A
VL: B1 VL
B8: hHC4-04 / hLC4-I (antibody, V domains shown)
VH: B1 VH with V5L, K13Q, A75S, S78T
VL: B2 VL with L4M, H33S, E78Q
B9: hHC4-d / hLC4-f (antibody, V domains shown)
VH: B1 VH with V5L, K13Q, A75S, S78T, R98K
VL: B1 VL with F70Y
B10: hHC4-I / hLC4-e (antibody, V domains shown)
VH: B1 VH with V5L, K13Q, G33A, T50A, P61A, A75S, S78T, R98K
VL: B1 VL
B11: hHC4-b / hLC4-e (antibody, V domains shown)
VH: B1 VH with G33S, S35N, T50S, T58I, P61A
VL: B1 VL
B12: hHC4-a / hLC4-f (antibody, V domains shown)
VH: B1 VH
VL: B1 VL with F70Y
B13: hHC4-03 / hLC4-b (antibody, V domains shown)
VH: B1 VH with V5L, K13Q, T50A, A75S, S78T, R98K
VL: B2 VL with R24S, A25V, L32V, W46L, F70Y
B14: hHC4-04 / hLC4-J (antibody, V domains shown)
VH: B1 VH with V5L, K13Q, A75S, S78T
VL: B2 VL with L4M, L21M, E78Q
B15: hHC4-03 / hLC4-f (antibody, V domains shown)
VH: B1 VH with V5L, K13Q, T50A, A75S, S78T, R98K
VL: B1 VL with F70Y
B16: hHC4-04 / hLC4-K (antibody, V domains shown)
VH: B1 VH with V5L, K13Q, A75S, S78T
VL: B2 VL
B17: hHC4-04 / hLC4-f (antibody, V domains shown)
VH: B1 VH with V5L, K13Q, A75S, S78T
VL: B1 VL with F70Y
B18: hHC4-c / hLC4-e (antibody, V domains shown)
VH: B1 VH with K13Q, S49A
VL: B1 VL
B19: hHC4-03 / hLC4-M (antibody, V domains shown)
VH: B1 VH with V5L, K13Q, T50A, A75S, S78T, R98K
VL: B2 VL with L21M, R24G, Q41L, A59D, S76R
B20: hHC4-b / chLC4 (antibody, V domains shown)
VH: B1 VH with G33S, S35N, T50S, T58I, P61A
VL: B3 VL
B21: hHC4-04 / chLC4 (antibody, V domains shown)
VH: B1 VH with V5L, K13Q, A75S, S78T
VL: B3 VL
B22: hHC4-04 / hLC4-L (antibody, V domains shown)
VH: B1 VH with V5L, K13Q, A75S, S78T
VL: B2 VL with L21M
B23: hHC4-H / hLC4-f (antibody, V domains shown)
VH: B1 VH with K13Q, S49A, T58K, P61V
VL: B1 VL with F70Y
notes: also called Humanized CUB4 Antibody No. 146
B24: hHC4-b / hLC4-f (antibody, V domains shown)
VH: B1 VH with G33S, S35N, T50S, T58I, P61A
VL: B1 VL with F70Y
B25: hHC4-K2 / hLC4-e (antibody, V domains shown)
VH: B1 VH with T50S, P61A
VL: B1 VL
B26: hHC4-03 / hLC4-L (antibody, V domains shown)
VH: B1 VH with V5L, K13Q, T50A, A75S, S78T, R98K
VL: B2 VL with L21M
B27: hHC4-07 / hLC4-f (antibody, V domains shown)
VH: B1 VH with V5L, K13Q, G33A, A75S, S78T, R98K
VL: B1 VL with F70Y
B28: hHC4-03 / hLC4-a (antibody, V domains shown)
VH: B1 VH with V5L, K13Q, T50A, A75S, S78T, R98K
VL: B2 VL with R24S, A25V, L32V, W46L
B29: hHC4-03 / hLC4-I (antibody, V domains shown)
VH: B1 VH with V5L, K13Q, T50A, A75S, S78T, R98K
VL: B2 VL with L4M, H33S, E78Q
B30: hHC4-04 / hLC4-e (antibody, V domains shown)
VH: B1 VH with V5L, K13Q, A75S, S78T
VL: B1 VL
B31: hHC4-K / hLC4-f (antibody, V domains shown)
VH: B1 VH with T50S, T58I, P61A
VL: B1 VL with F70Y
B32: hHC4-c / hLC4-f (antibody, V domains shown)
VH: B1 VH with K13Q, S49A
VL: B1 VL with F70Y

Target: T1, Soluble CDCP1 extracellular domain …
Test: ELISA on captured SBP-CDCP1-ECD, ratio relative to chimeric CUB4 (chHC4)
Method: Soluble CDCP1 extracellular domain (CDCP1-ECD) (SEQ ID NO:30) fused to Streptavidin Binding Protein (SBP) was captured on a sreptavidine plate. To define optimal binding of the antibody to SBP-CDCP1-ECD, 384-well polystyrene plates (NUNC, streptavidin-coated) delivered by MicroCoat, Bernried, Germany (ID-No. 1734776-001) have been coated with pure and stepwise diluted HEK293 supernatant (in BSA/IMDM buffer: 100 mg/ml BSA Fraction V, Roche 10735078001, dissolved in Iscove's Modified Dulbeccos Medium). Using a calibration curve of mouse CUB4 antibodies the optimal dilution factor of the HEK293 supernatant in relation to the streptavidin binding capacity of the microtiter plate was identified. For the standard coating, SBP-CDCP1-ECD containing HEK293 supernatant was diluted (between 1:15 and 1:40) and incubated overnight at 2-8° C. (25 μl per well). Intensive washing of the microtiter plate is necessary to remove remaining unbound SBP-CDCP1-ECD.
Humanized CUB4 antibodies and/or reference antibody (chimeric (chHC4) CUB4 antibody comprising human constant region and mouse VH and VL of SEQ ID NO:1 and 2) were tested either undiluted or using a 12-step-dilution. 12.5 μl per well of each sample was incubated for 90 min at room temperature. After intensive washing using PBS-T (0.1% Tween 20 in PBS) 25 μl of either goat anti-human IgG antibodies coupled with HRP (Jackson ImmunoResearch, Code No: 109-036-098, dilution 1:10000) for human antibodies were added and incubated for 1 hour. After intensive washing the binding of the antibodies was detected with ABTS tablets (Roche Diagnostics GmbH, Cat. No.: 1112422). Absorbance at 405 nm/492 nm was measured using a standard photometer.

Binder	relative binding ratio	binding result
B1	0.46	–
B2	0.51	–
B3	1	–
B4	0.27	–
B5	1.12	–
B6	0.07	–
B7	–	no binding
B8	–	no binding
B9	0.4	–
B10	0.07	–
B11	–	no binding
B12	0.5	–
B13	0.07	–
B14	0.4	–
B15	0.07	–
B16	0.57	–

Binder	relative binding ratio	binding result
B17	0.37	–
B18	0.25	–
B19	0.14	–
B20	–	no binding
B21	0.71	–
B22	0.68	–
B23	0.42	–
B24	–	no binding
B25	0.07	–
B26	0.17	–
B27	0.07	–
B28	0.07	–
B29	–	no binding
B30	0.2	–
B31	–	no binding
B32	0.34	–
